The data set relates to MS2 coat protein. Briefly: apparent KD of MS2 coat protein; higher = weaker reporter binding. Conditions: Eterna round: R107. The procedure, abridged: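 Apparent KD stands for the median, per design, of fits to normalised cluster binding curves. The curves came from titrating on-chip-transcribed RNA switches on Illumina sequencing clusters with SNAP-549-labelled MS2 coat protein, twofold from 0.7 or 1.5 nM to 3 µM. Buffer was 100 mM Tris-HCl pH 7.5, 80 mM KCl, 4 mM MgCl2, without or with constant ligand.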

[1] abbreviates: input ligand: theophylline 20 uM.
[2] abbreviates: input ligand: theophylline 2 mM.
The mark [3] stands for this setting: input ligand: tryptophan 2.4 mM.

As for “AGAUUCGACACGGCCGCCACUUGUGGUGGAUUAUCCAGUGUCGAACAUGAGGAUCACCCAUGUACAAGGACCGGGUGUUGAGUCU [XTryp B #19]”, the “apparent KD of MS2 coat protein” value reads like this: (input ligand: arginine 13.2 mM) 53.3 nM; under setting [1], 79.3 nM; under setting [2], 96.3 nM.
For “AGCAACAAGUCGGCCGCCACUCAUUUAACAUGAGGAUCACCCAUGUGAAUAACAUGAUUGUAAUAGAGGACCGGGACAGUUGCAU [JR_SSTryptoB_Sub014]” the same measures were 62.1 nM, 85.5 nM and 103 nM.
For the sequence “AGCACUGUGACGGCCGCCACUAUAUUAGGGUGGUAGGGUUCAUAAAUACAUGAGGAUCACCCAUGUAGGACCGGGUCUCAGUGCA [Omei Trp Exc B A v1]”, the “apparent KD of MS2 coat protein” value was 11.6 nM (input ligand: arginine 13.2 mM); 12.1 nM (input ligand: none); 15.9 nM under setting [1]; 10 nM under setting [2]; 21.2 nM under setting [3].
In the case of “AGCCACUCGAGUGAUCCUCACGAGUGGCUACGAGGACCGGUACGGCCGCCACUCGAAUCAACAUGAGGAUCACCCAUGUAAUAAU [Brourdmod02]”, the “apparent KD of MS2 coat protein” value runs as follows: (input ligand: arginine 13.2 mM) 20.5 nM; (input ligand: none) 202 nM; under setting [1], 159 nM; under setting [2], 802 nM; under setting [3], 54.8 nM.
In the case of “AGCCCUGUGCUAGAUACCAGCUACAUGAGGAUCACCCAUGUGCGUCAAGACUGACUGUGUAGCCCUUGGCAGCUACUCGCAUGUA [Exclusion - Theophylline B (Freestyle 4)]”, the “apparent KD of MS2 coat protein” value by setting is: (input ligand: arginine 13.2 mM) 11.9 nM; under setting [1], 19 nM; under setting [3], 12.5 nM.
For “AGCGACAUGCGUGAUACCAGCUACAUGAGGAUCACCCAUGUCAGUAGGAAACUGCUGUGUAGCCCUUGGCAGCACAGUGCAUGUC [Exclusion - Theophylline B (Freestyle 27)]” the same measures were 36 nM, 47.5 nM and 36.4 nM.
Regarding “AGCUCGCAUCCUCUAGCGUCAAAGACGCCUCGAGGACCGGUACGGCCGCCACUCGAUAUGAGGAUCACCCAUAUCAAAGCGAGCA [TrypAX 2 #SwitchBubble #AlternativeMS2 #MS2Late #CuTurnoff]”, the “apparent KD of MS2 coat protein” value reads like this: (input ligand: arginine 13.2 mM) 32.7 nM; (input ligand: none) 53.8 nM; under setting [1], 59.5 nM; under setting [2], 75.5 nM; under setting [3], 581 nM.
Regarding “AGGACGGCCGGAAGGAGCGGUACAUGAGGAUCACCCAUGUACCUCUGGGCAUCCGUAGUGUGCCAGGUAGGUCGCCGGUUGCGGG [Veatgema]”, the “apparent KD of MS2 coat protein” value stood at 11.1 nM (input ligand: arginine 13.2 mM); 9.88 nM (input ligand: none); 14.5 nM under setting [1]; 12.1 nM under setting [2]; 10.8 nM under setting [3].
Turning to “AGGGAACAUGAGGAUCACCCAUGUGCCGAUACCAGUGAUUUUCAGCACCCUUGGCAGCGGAACCUUUGUUAUAUUAUUCUUAGGG [theeternabot_sameState_MS2_Theo_A_25]”, the “apparent KD of MS2 coat protein” value was determined as 32.5 nM (input ligand: arginine 13.2 mM), 42.4 nM under setting [1] and 41.2 nM under setting [3].
Regarding “AGGUACGGAAUCCUCAUGUAGUCGUACCAACGAGGACCGGUACGGCCGCCACUCGAAUAAACAUGAGGAUCACCCAUGUAAUAAU [T''-M-T'-T-MS2]”, the “apparent KD of MS2 coat protein” value is, setting by setting: (input ligand: arginine 13.2 mM) 17.6 nM; under setting [1], 97.3 nM; under setting [2], 90.1 nM.
Turning to “AGUACAUGAGGAUCACCCAUGUAUCGGUACCGAGGACCGGUACGGCCGCCACUCGCAGGACAUGAGGAUCACCCAUGUGCAGCCG [SSTA DOUBLE!!! :-D #10]”, the “apparent KD of MS2 coat protein” value was 19.2 nM (input ligand: arginine 13.2 mM); 36.8 nM (input ligand: none); 40.9 nM under setting [1]; 43.8 nM under setting [2]; 35 nM under setting [3].
For the sequence “AGUCUAUGAAGAGAUACCAGUGAGAGACAUAGACAUGAGGAUCACCCAUGUGACAUGAAGCACCCUUGGCAGCUCAACGAGCUCA [Theo B SS t1]”, the “apparent KD of MS2 coat protein” value reads like this: (input ligand: arginine 13.2 mM) 31.4 nM; under setting [1], 50 nM; under setting [3], 39 nM.
With “AGUCUUGAACGAAGGAGCGACGUACAUGAGGAUCACCCAUGUGGGAGCGAAAGCUCCUAACGUCAGGUAGGUCGCGUUCGAGACA [Omei Arginine B SS A v1]”, the “apparent KD of MS2 coat protein” value worked out at 17.7 nM (input ligand: arginine 13.2 mM); 16.7 nM (input ligand: none); 21.9 nM under setting [1]; 16.2 nM under setting [2]; 18.6 nM under setting [3].
Consider “AGUGUUAUAACUGAUACCAGACCUUUGCUUAUACAUGAGGAUCACCCAUGUAAAAUGGCGGUCCCUUGGCAGCAGAGAAUACACA [#08 Same State - Theophylline B]”, for which the “apparent KD of MS2 coat protein” value by setting is: (input ligand: arginine 13.2 mM) 30.2 nM; under setting [1], 32.9 nM; under setting [3], 36.3 nM.
For “AGUGUUAUAACUGAUACCAGACUCUCAUGUUUACAUGAGGAUCACCCAUGUUAUUUCUUUGUCCCUUGGCAGCAGAAUUUACACA [JR_SSTheophyB_Sub009]” the same measures were 142 nM, 298 nM and 343 nM.

The values are drawn from the supplement of paper PMC9170038.
